Source: article PMC5452035, “Structural insight into recognition of phosphorylated threonine‐4 of RNA polymerase II C‐terminal domain by Rtt103p” (EMBO Reports, 2017)
Non-standard residues stand in square brackets, D forms with d. No end group written: not given here. pT = C[C@@H](OP(=O)(O)O)[C@H](N)C(=O)O; pS = N[C@@H](COP(=O)(O)O)C(=O)O; FAM = 5,6-carboxyfluorescein

T1: Rtt103p CID Arg108Asn mutant (yeast, UniProt Q05543 3-131, Arg108Asn)
T1 sequence (looked up): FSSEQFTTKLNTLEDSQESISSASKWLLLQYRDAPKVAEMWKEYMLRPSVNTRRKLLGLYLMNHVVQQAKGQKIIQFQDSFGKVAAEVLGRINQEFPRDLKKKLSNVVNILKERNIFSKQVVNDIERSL

T2: Rtt103p CID Arg116Glu mutant (yeast, UniProt Q05543 3-131, Arg116Glu)
T2 sequence (looked up): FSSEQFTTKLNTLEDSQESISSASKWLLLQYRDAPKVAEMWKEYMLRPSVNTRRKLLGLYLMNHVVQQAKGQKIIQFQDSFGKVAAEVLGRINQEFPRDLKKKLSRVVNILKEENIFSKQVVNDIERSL

T3: Rtt103p CID Lys72Glu mutant (yeast, UniProt Q05543 3-131, Lys72Glu)
T3 sequence (looked up): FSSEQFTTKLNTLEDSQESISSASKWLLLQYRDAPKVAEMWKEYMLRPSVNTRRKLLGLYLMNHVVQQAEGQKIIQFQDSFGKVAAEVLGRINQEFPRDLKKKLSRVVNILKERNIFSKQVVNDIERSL

T4: Rtt103p CTD-interacting domain (CID) (3-131-6xHIS) (yeast, UniProt Q05543 3-131)
T4 construct: Used unlabelled for fluorescence anisotropy and the 13C-HSQC titration, 15N-labelled for the TROSY titration and 15N,13C-labelled for the structure; also called Rtt103p CID; Rtt103 CID
T4 sequence (looked up): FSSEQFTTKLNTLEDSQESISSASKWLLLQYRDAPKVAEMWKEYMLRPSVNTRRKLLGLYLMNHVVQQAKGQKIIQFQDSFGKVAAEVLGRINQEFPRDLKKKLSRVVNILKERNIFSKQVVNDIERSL


Tests used:
Assay in all cases: fluorescence polarisation; fluorescence anisotropy; Rtt103p CID titrated into 10 nM N-terminally FAM-labelled CTD peptide; 10°C; 35 mM KH2PO4, 100 mM KCl, pH 6.8; 1:1 model with non-specific binding (DynaFit)
Settings in all cases: both partners purified
[1] = target: T1, Rtt103p CID Arg108Asn mutant
[2] = target: T2, Rtt103p CID Arg116Glu mutant
[3] = target: T3, Rtt103p CID Lys72Glu mutant
[4] = target: T4, Rtt103p CTD-interacting domain (CID) …

Binder	Kd [1] [µM]	Kd [2] [µM]	Kd [3] [µM]	Kd [4] [µM]
{FAM}-PSY[pS]PTSPSYSPTSPS (consensus heptad repeats (Tyr1-Ser2-Pro3-Thr4-Ser5-Pro6-Ser7) of the C-terminal domain of the largest subunit of RNA polymerase II (Rpb1); residues named by heptad position and repeat letter (P6a ... S7c); also called pSer2-CTD; FAM-pSer2 CTD; source: synthetic peptide (JPT, Berlin, or Clonestar, Brno)) [FAM-PSY(pS)PTSPSYSPTSPS]	44	–	–	–
{FAM}-PSYSP[pT]SPSYSPTSPS (consensus heptad repeats of the C-terminal domain of the largest subunit of RNA polymerase II (Rpb1); residues named by heptad position and repeat letter (P6a ... S7c); also called pThr4-CTD; FAM-pThr4 CTD; source: synthetic peptide (JPT, Berlin, or Clonestar, Brno)) [FAM-PSYSP(pT)SPSYSPTSPS]	38	107	54	–
{FAM}-PSYSP[pT]SPSYS (consensus heptad repeats of the C-terminal domain of the largest subunit of RNA polymerase II (Rpb1); residues named by heptad position and repeat letter (P6a ... S2c); source: synthetic peptide (JPT, Berlin, or Clonestar, Brno)) [FAM-PSYSP(pT)SPSYS]	–	–	–	18
